# Source: the NTF2 design screens of Basanta et al. (2020)
# Experiment: protease stability score; higher = more stable; yeast display proteolysis, trypsin and chymotrypsin;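 also: relative to predicted unfolded state with 0 unfolded-like and 1 meaning tenfold more protease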
row,Sequence,protease stability score
1,DEDKEIAKKAIEDLLRAWYTGDEEFLKNLVDPNVRSNFDGVDYHGRDEVEKFWHDHLRDLGADHVEFSLHELRIYGDKIILHTKIKFNVNGREIRRETEVISRKIDGRWLIKEIHFR,1.42
2,DEDKEILHKMVEILRHALQTGDEDRLSEMFDPNVRLEINGREEWGREIFRDKHRQLGVDHLHIIIRRVHIQGEYAHIDTEYRIHVNGKTLETRVEVIALKIDGKWLIRQVIFT,1.14
3,DEDKEILKRAFEIYIQTVLTGDEDLFHEMADPHTRLETENETFIGREEVRRWMSEWRVDHIILKDFTAVNGRLVLRGEMDGTINGKRTHVTVTIIIHKVDGRWLLKSMSVE,1.36
4,DEDKELAIRMIRLLMHALHTGDEDLLDELLDPNTKVDVDGQDLVGREQFLRDLRHIRIEIKDSHIHDVRVQGDKVRSHSYINGRREYDGVRLETEFRVLFIIRKVNGKWIFKSIHSL,1.3
5,DEDKEMIRHAVEILLKTLYTGDWETLERLLDPNARINVDGVDIHGRDVVKHWLDRADHVSIHDSHVERFRFVNGRLTIHIKEHSRFEIGDKTMRVELKRNLFILKIDGRWILESERIV,1.01
6,DEDKENAEEAIRRLMEMILTGDEDQIRHMIDPHVRVIINGRDHHGWEELLRFWKEMRIHDVKVHDIKIINGRVNSDTKIVTEIGDFRIELEAHFIFHKFDGRWRVDSVDLR,1.18
7,DEDKERADEMLEYILHYILTGDEDSLRELFDPHARLHVDGRDIIGWDKFNRKLIEIRQRTRIQSEHIHIQGDKLHVDGTLRINIHYNGQHLHIDLRSIHITVKINGRWVFKFMEIR,0.829
8,DEDKESAEEAFKVWVRDLMTGDEDSLRRLVDPRTLVEVGDKHFHGRDMFVHLEKLQRERADHIRIELHDFDIQGEKIHLDVRVILEQGEKRVFLRTHYLILKVNGRWIVKSLWIQ,0.921
9,DEDKESAERAFRILVHLWETGDEHKLERMHDPNTRYHQGDKDIHGMEKILERLSHIRIKDVKLRDIKYQGEKLEVDGEIEIEVDGRNLLLRTILFFDKVDGRWVIRSIEVR,1.52
10,DEDKESAKTLVELLVEVLSTGDWKELLHLMDPNTRININGREVHGWHSMHELLRRMIEELRIKRLHLTEVRAQGDKVHVSSKMRVNIDGQDRLTQTHIDVHVFDGVIKTWTMHIE,1.01
11,DEDKESLTRFWRMWVELNQTGDEDSLLKMFDPHVKIDINGRDLHGRELFAEEHKKFREEMGIDHFEFEIHRFEVQGDKANLDAKVTIRIGDKFHQLDLHIILHKVNGRWVLHSVKIR,1.22
12,DEDKESTDKMLELMLHLIKTGDFEIFEHLFDPNVRVNVGDKERVGWKEALKFRRQWRLHHMEVRDVHKVGDKMHVDSRIDGSVNGVREEDRTEIILVKYDGRWFITSIEFH,0.99
13,DEDKEWAHRILEHFLDNLRTGNEERLEELADPNTRVVIDGQEEHGMHVFNTLHKELRIDRIHLTSWDIQGDKLHLDVRVDGTFNGQREVTRVHIYFRVVNGRVKDIQIHVI,1.8
14,DEDKEYLREVLEVLKHMWDTGDERELSKLADPHTRVEINGVKFIGMEEFVRIMQELTKRADHMENRVERNIYQGDYVLVRTRLILKIGEKDFEREVDIFVRKFNGRWLIEELKFH,1.37
15,DEDKHLARHLVDLIWESLKTGNEKLSKSLADPNVRIIVGDKEVVGRERVEKWLEKVMHEIRVKDLDERHVDVQGDKVNVYVDIHGNFDGKDDTTHFYFDIKKVNGVWLIERYEVH,0.958
16,DEDKHLIETFLERLERILKTGDEEDERRLADPHAKLVQGDKILHGREELIRWLRELGAKHVRLHISHLDVQGDKVETDLRLIIIQGDKEYEKDMKVHVLKVDGRWLLKSIIVE,2.08
17,DEDKHLSDYAMELELHAIKTGDEDLWRELIDPNARLIVGDKTFHGWEHLVTFMVSLGVKHVKLKDLKIQGDKMHSKLEIEFDGRTRTYHVVSLKVDGRWVIESVEVR,1.06
18,DEDKHLSQLAIELLHRFLWTGDEHDLEHLMDPNAKLEQGDKTLHGRELVLEFFDHLVEEAGITKVDHKLRRIETYGNKVNIHGDLHVNGRTIRIEIIAVKINGKWVVRSVRIK,1.21

row,Sequence,protease stability score
1,DEDKHQLDEATKVWLELFLTGNEEELLKLADPDVRIEVDGKHFHGREVMLKLMQEWKHRLGINVDELKRTEIEVIDGKAHVHLDGELYIDGKTFRLDIEVVYEKIDGRWRLKKVRFDIR,2.15
2,DEDKHVVEEFEKLMSHSMATGDEESLLRLADPNTRIVIGDKELHGMDLYLRWHVQHWRELGVDRVKVEVRVRDVRVVDGKVHVIGELIFRFDGRTQSHDVELEIVKINGKWVLKQINLK,2.25
3,DEDKKELEEMFRILKEMWETGDWREESRMVDPHARVDINGVELHGREFIMEHIHRVKNMRFEIKRFDVVNGVLEIVGELHQGDKKHRVTIHALKFDGKWLQETVIIG,1.6
4,DEDKKFIDEYLKLLEDSIETGDWRNHNELLDPNALVLVNGVELHGRELAVTHTEKFLKHMGVKHYRLHEVDIQGEKVHIHSKAHVDGRTFDLEFISHKIDGRWLMSEVRIREN,1.24
5,DEDKKHALEMAEMLFELIWTGDEHMLKELMDPNTRLFFNGRETHGWEFLSRELIHLRHRSDFRIRDVRIIGDYLHVDGEFHTILNINGVDIELHLHMEIVLFKIDGRWVVHEIRFL,1.72
6,DEDKKITDRAFEIFIHNLYTGNEEDLHELADPNVRHIYGDWNVHGMELMTHVLWEIRMKRLNEHDLEIHIINGRAIIDLDGELDGEVNGRRHHRRIIIHVFALKIDGRWHLESMEVKTK,1.35
7,DEDKKIWKHWLEIFVRWFLTGDFDKLRENADPNARSDINGKELHGMETFVEAMRELGFKHVEIHDVHIQGNKVHLDTRVLFDGQHHTTHLHVHIVNGRLKEISIEIR,1.26
8,DEDKKLAHESFRIWLHWMRTGDEKMMEELMDPNTRTYFEGHSDHGRSAARQYANRIDHIHHIHVHHIEIQGDKVEVDGRLDGVVNGKRIDVRIVIESVKVNGKWIVRSIEEH,1.41
9,DEDKKLHHEALEVWERVLKTGNFRIESEYLDPHARNEFEGRHFHGRELFHELNEELGVENVRFHHFHVHDLETFNGRILMRFHMEGEINGQQFNVEVKVDTEKYDGVWFTRSFVER,0.38
10,DEDKKLVEWVLRMLFEALRTGDEHALNNLFDPNVRIEQGDKRFHGREELIRLFHILGIDHIIIEDKDIKVFDGQLEIDGREVLIFDGRRFEIDMKIYIHKINGRWHVKSVHKD,1.78
11,DEDKKRSEEISKTMIEAMETGDEDRLHELLDPHVRMEIRIGDKHIIDHGREMMLHWSRRYPNLQFRLSHIDVQGDKIHAHWLVHIGDKTRDVELELQVVDGQIHSIHLRIR,1.52
12,DEDKKVAELVMRLWEHTQRTGDPDMMSKLADPNVRVDVNGREIHGRERLFEHLEHMRINHFRLRDREIHVQGDYVKIRIEGELDGDINGREDRHRIELIIVVEKINGRWFMTEVIVIVK,1.37
13,DEDKKVFETALRILIHYERTGDWELLHRLADPNTRMIQGDKLHIGREKAKEFINKWTEEMRPTDVRIDHVEIINGRIHIEGTTHGDVNGQRHDLEVHILSIKVDGRWRLKEFELK,1.2
14,DEDKKWVDEMIRLLLEYWRTGDEERIRQLADPNVRTHINGKEIHGMEIHLQYLREFMETFGVDHVELRIHHKDIQGDKIHLHVEIIYTVGDKEHRQEVHFRARKINGKWMIEHVEIK,1.25
15,DEDKQHAEKVWRLFSKFVNTGDEESLNRLFDPDVKLRVGDKEFHGREEFVKFMSELYRRIDHVHWHFSHIEVVGEYIIIHGHTIFEVGDKKDSRDTRLIMFKVNGRWHIHHIRIE,2.33
16,DEDKQWIEEFIELHLRELETGDEQRVDENLDPNVKLRINGKEVHGRERISHLLKELLRKVKNLKVELHDIRVQGDFLEIEGTLRIGDKELDLYVIAHKVNGKWIVKERRIH,1.23
17,DEDKRHADRWVDELRRVMLTGDFDTYVEMLDPHVRIEVGDKVIHGREDLIKFMRERLDRLGYERVEIRIEVSDREKQGDKIELHGTLHLFIGDKEHTHKIRIWIRKVNGQWIAESERVQ,1.71
18,DEDKTNLDMALRLLKEVTETGDEETLLKMMDPNVRIIINGRDVHGRENAERFATEWSRKVKNATLEVKDFHSQGEKVHLLGHDIFNGREIEFRIIWVKYNGRWFIHEIIFI,1.3
